# B1: NCK2 (parent)
# chain: YVERKNSLKKGSLVKNLKDTLGLG
# B2: TMEM106C (parent)
# chain: TVPEILVHNIVIFMRTSVKISYIG
# Variants of: B1
# Test: protein stability index of a GFP-peptide fusion (GPS, HEK-293T) (PSI 1-6); higher = more stable
# Conditions: c terminus: a fixed tail appended
# 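Also: lentivirally expressed fusions sorted by FACS into six bins by GFP to DsRed ratio, PSI derived from sequencing read proportions per bin multiplied by bin number.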
row,Variant,protein stability index
1,N6I,2.39
2,N6V,1.58
3,G22W,2.56
4,G11I,1.68
5,G11P,2.11
6,G11D,2.44
7,N16C,2.1
8,L8H,3.11
9,L8W,1.89
10,K15W,1.98
11,L13I,2.13
12,K9F,3.15
13,K9M,1.92
14,K10V,2.04
15,K10W,1.78
16,K10E,2.29
17,T20L,2.07
18,E3I,2.1
19,L21T,2.44
20,L21A,2.4
21,L23D,2.76
22,L23G,2.94
23,L23A,2.96
24,L23Q,2.33

# Variants of: B2
# Test: as above
# Conditions: c terminus: a fixed tail appended
row,Variant,protein stability index
1,E4H,2.29
2,E4S,2.88
3,E4Y,2.81
4,E4F,2.67
5,E4Q,2.61
6,E4T,2.5
7,E4G,3.29
8,E4V,3.21
9,E4L,3.55
10,E4D,3.56
11,E4K,2.94
12,E4N,2.99
13,E4I,2.02
14,E4M,4.55
15,K19E,4.38
16,K19L,3.2
17,K19G,2.77
18,K19A,3.17
19,K19D,3.61
20,K19H,2.62
21,K19F,3.24
22,K19I,3.18
23,K19P,2.88
24,K19N,3.38

row,Variant,protein stability index
1,K19S,3.4
2,K19Y,3.12
3,K19C,4.43
4,K19M,1.77
5,K19Q,3.02
6,N9H,2.15
7,N9W,3.74
8,N9I,2.82
9,N9E,2.96
10,N9S,2.31
11,N9G,2.98
12,N9D,3.55
13,N9A,2.89
14,N9L,3.14
15,N9F,2.06
16,N9K,2.02
17,N9C,2.85
18,N9P,3.7
19,N9R,2.94
20,N9V,2.49
21,N9M,3.79
22,N9T,2.49
23,N9Y,2.44
24,N9Q,2.95

row,Variant,protein stability index
1,V11W,2.85
2,V11C,3.91
3,V11F,4.1
4,V11P,2.92
5,V11H,3.13
6,V11N,2.86
7,V11G,3.12
8,V11L,1.78
9,V11Q,1.83
10,V11S,3.97
11,V11T,3.11
12,V11E,3.64
13,V11Y,2.44
14,V11M,2.77
15,V11R,2.22
16,V11D,2.52
17,V11A,4.26
18,I10D,2.47
19,I10R,2.42
20,I10A,3.07
21,I10W,3.61
22,I10M,3.31
23,I10N,2.65
24,I10T,2.67

row,Variant,protein stability index
1,I10P,2.49
2,I10H,3.4
3,I10C,2.67
4,I10E,3.64
5,I10K,4.3
6,I10V,2.92
7,I10Q,2.94
8,I10G,4.19
9,I10F,3.5
10,I10Y,2.71
11,V7P,3.59
12,V7I,4.62
13,V7Q,3.02
14,V7D,2.53
15,V7E,4.49
16,V7M,2.05
17,V7S,2.37
18,V7T,2.15
19,V7H,3.09
20,V7W,3.68
21,V7K,3.79
22,V7F,2.51
23,V7G,3.49
24,V7R,2.44

row,Variant,protein stability index
1,V7N,2.83
2,V7Y,3.26
3,V7C,3.89
4,V7L,2.24
5,V7A,3.25
6,I20F,3.1
7,I20G,3.25
8,I20D,3.71
9,I20S,3.33
10,I20R,2.13
11,I20C,3.79
12,I20N,1
13,I20K,3.3
14,I20P,3.39
15,I20E,3.72
16,I20L,3.56
17,I20H,4.04
18,I20A,2.52
19,I20Q,4.14
20,T16L,3.11
21,T16E,2.54
22,T16I,1.93
23,T16A,1.5
24,T16W,2.85

row,Variant,protein stability index
1,T16Y,3.88
2,T16F,3.06
3,T16N,2.98
4,T16S,2.54
5,T16R,2.5
6,T16D,2.97
7,T16Q,2.46
8,F13E,2.27
9,F13R,2.3
10,F13Q,2.96
11,F13H,2.11
12,F13V,3.33
13,F13S,2.83
14,F13D,2.85
15,F13M,2.42
16,F13A,3.07
17,F13C,3.25
18,F13K,3.49
19,F13G,3.8
20,F13L,4.27
21,F13Y,3.23
22,F13P,3.22
23,F13T,2.99
24,F13N,3.17

row,Variant,protein stability index
1,R15L,3.26
2,R15Q,2.73
3,R15S,3.18
4,R15C,2.91
5,R15D,2.57
6,R15K,3.46
7,R15I,4.22
8,R15V,3.67
9,R15G,3.23
10,R15T,2.69
11,R15M,3.77
12,R15P,2.47
13,R15A,2.33
14,R15H,2.94
15,R15F,3.57
16,R15N,3.2
17,R15E,1.63
18,L6P,2.63
19,L6H,3.88
20,L6F,2.25
21,L6Y,2.26
22,L6T,2.83
23,L6Q,2.44
24,L6A,3.67

row,Variant,protein stability index
1,L6R,4.09
2,L6I,2.59
3,L6S,2.77
4,L6E,2.11
5,L6V,4.06
6,L6N,2.24
7,L6G,3.13
8,L6M,2.78
9,L6C,4.05
10,L6W,2.8
11,L6K,2.5
12,V2L,3.28
13,V2C,2.31
14,V2D,2.5
15,V2W,2
16,V2I,2.67
17,V2Y,3.53
18,V2K,2.81
19,V2F,2.95
20,V2G,2.98
21,V2P,3.94
22,V2S,2.63
23,V2N,2.01
24,V2H,2.77

row,Variant,protein stability index
1,V2E,2.47
2,I12F,2.8
3,I12C,2.8
4,I12G,3.97
5,I12W,2.08
6,I12P,2.19
7,I12V,2.64
8,I12S,2.88
9,I12D,3.93
10,I12T,2.07
11,I12E,3.69
12,I12H,3.33
13,I12N,3.08
14,I12Q,2.11
15,I12R,3.25
16,I12Y,3.05
17,I12M,2.29
18,I12L,3.84
19,I12K,2.81
20,P3H,2.52
21,P3K,3.27
22,P3Q,2.68
23,P3N,1.33
24,P3G,3.81

row,Variant,protein stability index
1,P3A,3.18
2,P3I,1.79
3,P3C,2.32
4,P3S,3.98
5,P3L,1.85
6,P3R,3.41
7,M14I,2.85
8,M14Q,3.58
9,M14L,3.05
10,M14D,3.11
11,M14E,3.79
12,M14Y,2.6
13,M14S,4.03
14,M14R,2.21
15,M14H,2.91
16,M14F,2.97
17,M14P,3.45
18,M14N,3.25
19,M14V,2.68
20,M14W,2.87
21,M14A,3.73
22,M14C,2.99
23,M14K,3.19
24,M14G,3.13

row,Variant,protein stability index
1,I5L,2.94
2,I5F,3.14
3,I5K,1.73
4,I5G,2.54
5,I5A,2.92
6,I5W,2.49
7,I5T,3.88
8,I5M,2.67
9,I5Y,2.58
10,I5R,2.19
11,I5S,2.36
12,I5D,3.24
13,I5H,4.38
14,I5P,3.34
15,I5N,2.34
16,I5Q,3.61
17,I5E,4.16
18,T1M,3.02
19,T1L,2.03
20,T1D,1.51
21,T1W,2.7
22,T1I,4.36
23,T1E,2.4
24,T1S,3.42

row,Variant,protein stability index
1,V18A,4.48
2,V18N,3.44
3,V18K,2.77
4,V18W,2.45
5,V18T,3.66
6,V18P,2.92
7,V18F,2.33
8,V18S,3.02
9,V18D,2.15
10,V18E,2.77
11,V18M,3.05
12,V18Y,4.01
13,V18H,2.13
14,V18Q,3.31
15,V18G,2.88
16,V18L,4.24
17,H8N,3.21
18,H8I,2.58
19,H8G,2.27
20,H8R,2.67
21,H8V,2.81
22,H8F,3.98
23,H8S,3.74
24,H8L,3.28

row,Variant,protein stability index
1,H8Q,2.63
2,H8D,3.5
3,H8P,3.19
4,H8T,2.41
5,H8K,3.34
6,S17K,4.27
7,S17M,2.69
8,S17A,4.19
9,S17T,3.17
10,S17W,3.7
11,S17N,3.88
12,S17D,2.48
13,S17F,4.33
14,S17Y,3
15,S17I,2.2
16,S17L,2.29
17,S17H,2.76
18,S17R,3.66
19,S17Q,3.81
20,S17E,3.3
21,S17C,3.88
22,S17G,2.1
